Laboratory results published in article PMC10658506.
Substitutions are numbered along the chain they refer to. In names and notes the source's numbering stands.

B1: yeast-displayed wild-type human IL-11, P20809 D19G; T21I; L57P; G62R (protein)
chain: PGPPPGPPRVSPDPRAELGSIVLLTRSLLADTRQLAAQLRDKFPADGDHNLDSLPTPAMSARALGALQLPGVLTRLRADLLSYLRHVQWLRRAGGSSLKTLEPELGTLQARLDRLLRRLQLLMSRLALPQPPPDPPAPPLAPPSSAWGGIRAAHAILGGLHLTLDWAVRGLLLLKTRL
B2: soluble human IL-11 receptor extracellular domain, his-tagged (receptor)
chain: SPCPQAWGPPGVQYGQPGRSVKLCCPGVTAGDPVSWFRDGEPKLLQGPDSGLGHELVLAQADSTDEGTYICQTLDGALGGTVTLQLGYPPARPVVSCQAADYENFSCTWSPSQISGLPTRYLTSYRKKTVLGADSQRRSPSTGPWPCPQDPLGAARCVVHGAEFWSQYRINVTEVNPLGASTRLLDVSLQSILRPDPPQGLRVESVPGYPRRLRASWTYPASWPCQPHFLLKFRLQYRPAQHPAWSTVEPAGLEEVITDAVAGLPHAVRVSARDFLDAGTWSTWSPEAWGTPSTGTIPKEIPAWGQLHTQPEVEPQVDSPAPPRPSLQPHPRLLDHRDSVEQVAVLA
B3: soluble mouse IL-11 receptor (receptor)
chain: SPCPQAWGPPGVQYGQPGRPVMLCCPGVSAGTPVSWFRDGDSRLLQGPDSGLGHRLVLAQVDSPDEGTYVCQTLDGVSGGMVTLKLGFPPARPEVSCQAVDYENFSCTWSPGQVSGLPTRYLTSYRKKTLPGAESQRESPSTGPWPCPQDPLEASRCVVHGAEFWSEYRINVTEVNPLGASTCLLDVRLQSILRPDPPQGLRVESVPGYPRRLHASWTYPASWRRQPHFLLKFRLQYRPAQHPAWSTVEPIGLEEVITDAVAGLPHAVRVSARDFLDAGTWSAWSPEAWGTPSTGPLQDEIPDWSQGHGQQLEAVVAQEDSPAPARPSLQPDPRPLDHRDPLEQVAVLA

How the values were obtained:
human gp130-Fc, P40189 = target: T1, human gp130-Fc, P40189; assay: flow cytometry on yeast-displayed IL-11; settings: chain shown with the change, 100 nM IL-11R added, read off a plot
T1 chain: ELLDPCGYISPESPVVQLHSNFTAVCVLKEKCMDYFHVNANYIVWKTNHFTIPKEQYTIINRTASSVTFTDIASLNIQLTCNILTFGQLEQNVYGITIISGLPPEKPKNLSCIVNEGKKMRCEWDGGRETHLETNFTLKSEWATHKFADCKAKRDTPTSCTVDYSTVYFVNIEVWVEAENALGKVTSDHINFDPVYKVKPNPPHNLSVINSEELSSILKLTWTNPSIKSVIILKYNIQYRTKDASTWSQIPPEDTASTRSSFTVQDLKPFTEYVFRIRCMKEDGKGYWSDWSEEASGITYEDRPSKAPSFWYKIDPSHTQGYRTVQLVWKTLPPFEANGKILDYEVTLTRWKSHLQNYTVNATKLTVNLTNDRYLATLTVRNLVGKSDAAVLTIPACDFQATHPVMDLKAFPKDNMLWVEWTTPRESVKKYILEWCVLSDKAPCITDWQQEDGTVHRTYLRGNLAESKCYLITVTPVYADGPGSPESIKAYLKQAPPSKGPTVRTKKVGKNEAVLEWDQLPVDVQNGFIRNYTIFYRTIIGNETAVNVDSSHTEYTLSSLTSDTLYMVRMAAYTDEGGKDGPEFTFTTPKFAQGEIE

[1] = target: yeast-displayed IL-11 GIPR (human); assay: flow cytometry on cells; yeast-displayed IL-11 variants incubated with varying concentrations of soluble IL-11R or mIL-11R overnight at room temperature, washed with BPBS; receptor detected with anti-his AF647, display with anti-c-myc; apparent Kd from the fraction bound of the expressing …
[2] = target: T2, yeast-displayed IL-11 L57P (human); assay: as above
T2 sequence (P20809 22-199 with L57P, looked up): B1 chain with G19D, I21T, R62G

[3] = target: yeast-displayed IL-11 GIPR S60T (human); assay: as above

Binder	response (Normalized Fluorescence) (human gp130-Fc, P40189; 10 nM gp130-Fc)	response (Normalized Fluorescence) (human gp130-Fc, P40189; 100 nM gp130-Fc)	response (Normalized Fluorescence) (human gp130-Fc, P40189; 1000 nM gp130-Fc)	Kd [1] [nM]	fold improvement of apparent Kd over WT IL-11 [1] [fold]	Kd [2] [nM]	fold improvement in IL-11R binding over WT IL-11 [2] [fold]	Kd [3] [nM]
B1	28000	35000	40000					
B2				0.12	70	0.71	10	
B3				1.5				0.29
